# Molecular target: Arg224 (UniProt position 224, YHALYRYFVEL)
# Test: electrophysiology
substance,measurement,setting,value
TASK-2 (K2P5.1) two-pore domain K+ channel (Mus musculus),pKa,"bath: 135 mM sodium gluconate, 1 mM potassium gluconate, 4 mM KCl, 2 mM CaCl2, 1 mM MgCl2, 105 mM sucrose, pipette: 8 mM KCl, 132 mM potassium gluconate, 1 mM MgCl2, 10 mM EGTA, 1 mM Na3ATP, 0.1 mM GT, 10 mM HEPES/Tris, 0 mV value from a fit across voltages, [K+]i/[K+]o 140/5 mM, intracellular pH 7.4",8.37
same,pKa,"bath: 135 mM sodium gluconate, 1 mM potassium gluconate, 4 mM KCl, 2 mM CaCl2, 1 mM MgCl2, 105 mM sucrose, pipette: 8 mM KCl, 132 mM potassium gluconate, 1 mM MgCl2, 10 mM EGTA, 1 mM Na3ATP, 0.1 mM GT, 10 mM HEPES/Tris, membrane potential +60 mV, [K+]i/[K+]o 140/5 mM, intracellular pH 7.4",8.15
same,pKa,"bath: 135 mM sodium gluconate, 1 mM potassium gluconate, 4 mM KCl, 2 mM CaCl2, 1 mM MgCl2, 105 mM sucrose, pipette: 8 mM KCl, 132 mM potassium gluconate, 1 mM MgCl2, 10 mM EGTA, 1 mM Na3ATP, 0.1 mM GT, 10 mM HEPES/Tris, membrane potential -120 mV, [K+]i/[K+]o 140/5 mM, intracellular pH 7.4",8.76
same,pKa,"not stated, most extracellular Cl- replaced by sulphate, extracellular solution with most Cl- replaced by sulphate, voltage not stated, cited from earlier work",8.0

# From PMC3725403
